Holding throughout (experiment): two-hybrid library CCNG1;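 also: natural log of median RNA to DNA barcode read ratio; higher means stronger binding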
For one experiment, the target named is T1, P7A-bP.
T1 chain: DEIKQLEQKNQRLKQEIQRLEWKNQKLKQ

The target of another experiment is T2, P6A-bP.
T2 chain: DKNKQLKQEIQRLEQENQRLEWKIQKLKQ

Another experiment concerns the target T3, P3A-bP.
T3 chain: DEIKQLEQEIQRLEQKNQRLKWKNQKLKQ

Another experiment addresses T4, P5A-bP.
T4 chain: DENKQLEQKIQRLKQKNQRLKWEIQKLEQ

Another experiment addresses T5, P4A-bP.
T5 chain: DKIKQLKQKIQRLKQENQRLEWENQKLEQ

For another experiment, the target named is T6, P9A-bP.
T6 chain: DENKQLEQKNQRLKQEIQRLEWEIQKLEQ

In another experiment the target is T7, P8A-bP.
T7 chain: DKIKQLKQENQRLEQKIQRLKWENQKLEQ

The next experiment has as its target T8, P2A-bP.
T8 chain: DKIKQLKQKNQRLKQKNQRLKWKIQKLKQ

The next experiment concerns the target T9, 4H342-bN.
T9 chain: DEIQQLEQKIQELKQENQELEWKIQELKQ

A further experiment has as its target T10, 4H48-bN.
T10 chain: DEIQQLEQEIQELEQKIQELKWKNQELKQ

Another experiment concerns the target T11, 4H491-bN.
T11 chain: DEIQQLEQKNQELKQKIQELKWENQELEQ

In the next experiment the target is T12, 4H2944-bN.
T12 chain: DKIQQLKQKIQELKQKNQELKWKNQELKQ

In a further experiment the target is T13, 4H3592-bH.
T13 chain: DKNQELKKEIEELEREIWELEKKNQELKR

The next experiment has as its target T14, 4H3907-bH.
T14 chain: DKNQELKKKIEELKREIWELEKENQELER

The next experiment addresses T15, 4H4038-bH.
T15 chain: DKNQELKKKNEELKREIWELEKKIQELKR

Another experiment has as its target T16, 4H3601-bH.
T16 chain: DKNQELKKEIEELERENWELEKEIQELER

The next experiment concerns the target T17, 4H363-bA.
T17 chain: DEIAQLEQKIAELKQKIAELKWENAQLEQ

The target of the next experiment is T18, 4H3907-bA.
T18 chain: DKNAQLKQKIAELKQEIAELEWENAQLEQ

The next experiment has as its target T19, 4H3974-bA.
T19 chain: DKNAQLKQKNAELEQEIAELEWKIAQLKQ

For a further experiment, the target named is T20, 4H470-bA.
T20 chain: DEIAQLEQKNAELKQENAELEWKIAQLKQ

The next experiment has as its target T21, P1mSN.
T21 chain: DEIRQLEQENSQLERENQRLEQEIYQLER

A further experiment has as its target T22, 4H3961-bA.
T22 chain: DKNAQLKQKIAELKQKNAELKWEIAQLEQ

Another experiment addresses T23, 4H344-bA.
T23 chain: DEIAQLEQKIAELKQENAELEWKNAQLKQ

The next experiment deals with T24, 4H2745-bA.
T24 chain: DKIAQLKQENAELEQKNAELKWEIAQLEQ

For a further experiment, the target named is T25, P3A-bS.
T25 chain: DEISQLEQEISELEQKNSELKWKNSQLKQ

In the next experiment the target is T26, P2A-bS.
T26 chain: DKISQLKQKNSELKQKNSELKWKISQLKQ

A further experiment addresses T27, P4A-bS.
T27 chain: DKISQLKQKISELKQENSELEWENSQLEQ

The target in a further experiment is T28, P6A-bS.
T28 chain: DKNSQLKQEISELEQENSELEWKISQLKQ

A further experiment has as its target T29, P8A-bS.
T29 chain: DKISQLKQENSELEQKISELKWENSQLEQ

Another experiment addresses T30, P5A-bS.
T30 chain: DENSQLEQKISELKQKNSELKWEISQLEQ

The next experiment concerns the target T31, P7A-bS.
T31 chain: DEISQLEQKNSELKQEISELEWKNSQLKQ

For a further experiment, the target named is T32, P9A-bS.
T32 chain: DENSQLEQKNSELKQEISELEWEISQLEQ

For the next experiment, the target named is T33, 4H730-bN.
T33 chain: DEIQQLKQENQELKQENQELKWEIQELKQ

The target of another experiment is T34, 4H2518-bN.
T34 chain: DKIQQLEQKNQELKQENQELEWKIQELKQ

Another experiment deals with T35, 4H2253-bN.
T35 chain: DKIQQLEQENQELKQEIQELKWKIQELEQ

A further experiment has as its target T36, 4H235-bN.
T36 chain: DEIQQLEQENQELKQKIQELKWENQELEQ

The next experiment has as its target T37, 4H2760-bN.
T37 chain: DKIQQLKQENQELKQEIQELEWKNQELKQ

The next experiment addresses T38, 4H2444-bN.
T38 chain: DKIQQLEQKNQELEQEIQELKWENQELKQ

A further experiment addresses T39, 4H796-bN.
T39 chain: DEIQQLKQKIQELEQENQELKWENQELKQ

A further experiment deals with T40, 4H349-bN.
T40 chain: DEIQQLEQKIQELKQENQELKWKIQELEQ

The target in the next experiment is T41, 4H56-bN.
T41 chain: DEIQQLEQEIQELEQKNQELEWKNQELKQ

A further experiment addresses T42, 4H3364-bN.
T42 chain: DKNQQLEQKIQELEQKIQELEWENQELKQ

For a further experiment, the target named is T43, 4H264-bN.
T43 chain: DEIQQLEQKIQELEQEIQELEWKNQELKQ

In the next experiment the target is T44, 4H3041-bN.
T44 chain: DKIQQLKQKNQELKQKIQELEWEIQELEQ

Another experiment addresses T45, 4H949-bN.
T45 chain: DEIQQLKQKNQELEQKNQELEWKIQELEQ

The target in another experiment is T46, 4H3381-bN.
T46 chain: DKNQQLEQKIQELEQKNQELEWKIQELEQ

The target of the next experiment is T47, 4H932-bN.
T47 chain: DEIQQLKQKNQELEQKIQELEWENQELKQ

Another experiment has as its target T48, 4H3297-bN.
T48 chain: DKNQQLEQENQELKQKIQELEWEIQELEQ

For the next experiment, the target named is T49, 4H2931-bN.
T49 chain: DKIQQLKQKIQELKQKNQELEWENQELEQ

In the next experiment the target is T50, 4H2859-bN.
T50 chain: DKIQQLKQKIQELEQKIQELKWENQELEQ

For a further experiment, the target named is T51, 4H2585-bN.
T51 chain: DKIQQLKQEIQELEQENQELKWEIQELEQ

With DKIKQLKQKNQRLKQKNQRLKWKIQKLKQ [P2A-bP], the interaction score was -2.54 in the experiment with P7A-bP; -0.533 in the experiment with P6A-bP; -1.2 in the experiment with P3A-bP; -1.71 with P5A-bP; -1.81 in the experiment with P4A-bP; -0.913 in the experiment with P9A-bP. Also, the interaction score with P8A-bP was -0.672; in the experiment with P2A-bP it was 0.0236.
With DKIQQLKQKIQELKQKNQELKWKNQELKQ [4H2944-bN], the interaction score with 4H342-bN is -0.943; in the experiment with 4H48-bN, -0.0947; in the experiment with 4H491-bN, -0.954; with 4H2944-bN, -0.735.
DKNQELKKEIEELEREIWELEKKNQELKR [4H3592-bH]: the interaction score was 0.863 in the experiment with 4H3592-bH, 1.02 with 4H3907-bH, -0.403 in the experiment with 4H4038-bH and -0.0581 in the experiment with 4H3601-bH.
Turning to DKIAQLKQENAELEQKNAELKWEIAQLEQ [4H2745-bA], the interaction score with 4H363-bA was -1.18; with 4H3907-bA, -1.14; in the experiment with 4H3974-bA, 0; with 4H470-bA, 2.34; with P1mSN, -0.547; in the experiment with 4H3961-bA it was -1.18. The interaction score is 0.257 with 4H344-bA and -0.711 in the experiment with 4H2745-bA.
Regarding DKISQLKQKNSELKQKNSELKWKISQLKQ [P2A-bS], the interaction score with P3A-bS is -0.857; with P2A-bS it was -1.36; with P4A-bS it was -0.497; with P6A-bS, -1.71; in the experiment with P8A-bS it was -0.742; with P5A-bS it was -0.924. For the same molecule, the interaction score with P7A-bS is -0.792; in the experiment with P9A-bS, -0.777.
Take DKIQQLEQENQELKQEIQELKWKIQELEQ [4H2253-bN]: the interaction score was -0.523 in the experiment with 4H730-bN; 0.436 in the experiment with 4H2518-bN; 1.16 in the experiment with 4H2253-bN; -0.204 with 4H235-bN; 0.286 with 4H2760-bN; 0.131 with 4H2444-bN. The interaction score with 4H796-bN is -1.07; with 4H349-bN, -0.821; with 4H56-bN it was -0.248; with 4H3364-bN, -1.32; in the experiment with 4H264-bN, 0.574; with 4H3041-bN it was -0.989. In addition, the interaction score with 4H949-bN is -0.506; with 4H3381-bN, -0.558; with 4H932-bN, -0.7; in the experiment with 4H3297-bN it was 0.232; in the experiment with 4H2931-bN, -0.437; in the experiment with 4H2859-bN it was -0.113. Further, the interaction score with 4H2585-bN is -1.66.

(Values after paper PMC10397247.)
